Measurements as given in patent US20150104469A1 (EXTEND BIOSCIENCES, published 2015).

Biological target: GHS-R receptor
Assay: cell-based or functional assay

Chain of GHS-R receptor (Q92847 whole entry): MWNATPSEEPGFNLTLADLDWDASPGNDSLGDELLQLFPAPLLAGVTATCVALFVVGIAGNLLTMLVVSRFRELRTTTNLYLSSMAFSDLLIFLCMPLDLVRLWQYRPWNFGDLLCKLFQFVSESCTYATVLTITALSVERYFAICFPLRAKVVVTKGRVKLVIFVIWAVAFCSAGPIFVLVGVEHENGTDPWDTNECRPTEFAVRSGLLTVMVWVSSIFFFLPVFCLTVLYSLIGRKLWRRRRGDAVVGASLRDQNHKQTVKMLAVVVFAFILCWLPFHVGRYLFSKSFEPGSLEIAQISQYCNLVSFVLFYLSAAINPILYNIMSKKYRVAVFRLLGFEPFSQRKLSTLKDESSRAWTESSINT

EC50, calcium flux (FLIPR) % activation in GHS-R-expressing CHO-K1 cells: 0.085 µM
B1: Vitamin D3-PEG-maleimide carrier-conjugated ghrelin from Example 3 (peptide)
peptide: GSSFLSPEHQKAQQRKESKKPPAKLQPRC
modifications: n-octanoyl-Ser at position 3; Vitamin D3-PEG (2 kDa)-maleimide carrier coupled to the free thiol of the added C-terminal cysteine
